Experiment [1] addresses integrin β3 transmembrane-cytoplasmic domain (TM/tail, residues 685-762) embedded in Nanodiscs (UniProt P05106). The experiment is described as follows: FRET or BRET. A general note: Bioluminescence resonance energy transfer reports proximity on the nanometre scale.
The target is the same in experiment [2]. Put plainly: FRET or BRET. This is another data set of the same source.

Like-named read-outs stand apart in the source and are kept apart here.

As usually defined, the Kd is the free concentration of one partner at which half of the binding sites on the other are occupied at equilibrium, for simple one-to-one binding. A lower Kd goes with a tighter complex.

Sequence of UniProt P05106 (P05106 711-788): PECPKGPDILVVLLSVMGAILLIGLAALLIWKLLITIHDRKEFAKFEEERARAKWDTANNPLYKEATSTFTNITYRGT

Take “talin-1 head domain (THD) I398C, Uniblue A labelled (from UniProt P26039 1-433) (domain or fragment)”: the Kd in experiment [1] was 580 nM. Besides, in experiment [2], the Kd was found to be 740 nM and the fold increase in affinity over 50% DMPS Nanodiscs without the integrin tail is 2 fold.

For the origin of these results see paper PMC5808563.
